Test results published in paper PMC5897841, “Development of a multipurpose scaffold for the display of peptide loops” (Protein Engineering, Design and Selection, 2017).
Ends that are not written are not given here.

T1: Aurora A_(D274N) kinase domain (human, UniProt O14965 122-403, D274N)
T1 construct: Aurora A kinase, human, kinase domain residues 122-403, kinase dead D274N; theoretical mass 33.8 kDa; Cloned into pHAT5 in frame with a C-terminal 6xHis-tag; also called kinase dead human Aurora A D274N mutant; source: E. coli BL21(DE3), purified (HisTrap HP, Superdex 75 SEC); not shown: His6, C-terminal, kept
T1 sequence (looked up): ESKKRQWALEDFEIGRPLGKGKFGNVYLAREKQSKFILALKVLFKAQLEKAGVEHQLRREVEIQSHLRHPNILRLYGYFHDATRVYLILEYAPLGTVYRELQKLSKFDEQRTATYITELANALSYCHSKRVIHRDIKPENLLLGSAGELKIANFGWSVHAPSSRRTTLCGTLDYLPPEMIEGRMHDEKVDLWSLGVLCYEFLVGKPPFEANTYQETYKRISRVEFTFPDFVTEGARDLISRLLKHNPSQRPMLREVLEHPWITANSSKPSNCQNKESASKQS

B1: linear TPX2_((7–43)) peptide (peptide)
peptide: LSYSYDAPSDFINFSSLDDEGDTQNIDSWFEEKANLENLKGGGCQM
notes: residue before the TPX2 stretch in the printed peptide; TPX2, human, residues 7-43; C-terminal extension of the printed peptide with the cysteine handle; Used free in ITC and immobilised through the cysteine on CM5 in SPR; also called TPX2 peptide; TPX-2 peptide; source: E. coli BL21(DE3), KSI fusion (pET31b), inclusion bodies, Ni-NTA, CNBr cleavage, reverse-phase HPLC
B2: Alexa Fluor 488-TPX2_((7–43)) peptide (peptide)
peptide: LSYSYDAPSDFINFSSLDDEGDTQNIDSWFEEKANLENLKGGGC(Alexa Fluor 488‑maleimide)QM
notes: residue before the TPX2 stretch in the printed peptide; TPX2, human, residues 7-43; C-terminal extension of the printed peptide with the cysteine that is labelled; As m10, labelled; the methods speak of 'free N-terminal cysteines' but the only cysteine of the printed peptide is near its C-terminus; also called Alexa Fluor 488-labeled TPX2 peptide; labeled wild-type TPX2 peptide; source: E. coli …
B3: Aurora A wild-type kinase domain (untagged) (domain or fragment)
chain: FEIGRPLGKGKFGNVYLAREKQSKFILALKVLFKAQLEKAGVEHQLRREVEIQSHLRHPNILRLYGYFHDATRVYLILEYAPLGTVYRELQKLSKFDEQRTATYITELANALSYCHSKRVIHRDIKPENLLLGSAGELKIADFGWSVHAPSSRRTTLCGTLDYLPPEMIEGRMHDEKVDLWSLGVLCYEFLVGKPPFEANTYQETYKRISRVEFTFPDFVTEGARDLISRLLKHNPSQRPMLREVLEHPWI

Columns and labels:
Conditions in all cases: both partners purified
[1] = molecular target: T1, Aurora A_(D274N) kinase domain; assay: ITC; itc200, 25°C, 10 mM HEPES pH 7.4, 500 mM NaCl, 0.05% P20; 50 μM titrant into 5 μM Aurora A D274N, 100 μM CK2β peptide or RAD-CK2β into 10 μM CK2α; single-site model
[2] = molecular target: T1, Aurora A_(D274N) kinase domain; assay: SPR; Biacore T100, CM5, peptides or cRAD display proteins immobilised through their cysteine (240-400 RU), kinase as analyte 2.5 nM-2.5 μM, 25°C, 10 mM HEPES pH 7.4, 500 mM NaCl, 0.05% P20; 1:1 steady-state affinity model; CK2α data analysed at 200 s post-injection
[3] = molecular target: T1, Aurora A_(D274N) kinase domain; assay: fluorescence polarisation; fluorescence anisotropy, direct titration of kinase (CK2α 2 nM-2 μM; Aurora A D274N 2 nM-1.5 μM) into labelled peptide or display protein; 10 mM HEPES pH 7.4, 500 mM NaCl, 1 mM DTT, 0.05% P20; room temperature; 1:1 model
[4] = molecular target: B2; assay: fluorescence polarisation; fluorescence anisotropy, direct titration of Aurora A wild type into 10 nM Alexa Fluor 488-TPX2 peptide, 25°C, HEPES pH 7.4, 0.1 M Mg(CH3COO)2, 100 mM NaCl, 1 mM ATP, 1 mM DTT, 0.01% P20; quadratic single-site equation

Binder: B1
- Kd [1]: 115 nM
- Kd [2]: 72 nM

Binder: B2
- Kd [3]: 74 nM

Binder: B3
- Kd [4]: 2.1 nM
